{"source": "patent EP1644414B1", "about": "(Crucell Holland B.V., dated 2015)", "binders": {"B1": {"name": "03-015 (antibody, V domains shown)", "VH": "EVQLVESGGGVVRPGGSLRLSCAASGFTFDDYGMSWVRQAPGKGLEWVSGINWNGGSTGYADSVKGRFTISRDNAKNSLYLQMNSLRAEDTAVYYCARGLSLRPWGQGTLVTVSS", "VL": "SSELTQDPAESVALGQTVRITCQGDSLRSYYASWYQQKPGQAPVLVIYGKNNRPSGIPDRFSGSSSGNTASLTITGAQAEDEADYYCNSRDSSGNHVVFGGGTKLTVLG"}, "B2": {"name": "03-002 (antibody, V domains shown)", "VH": "EVQLVESGGGLVKPGGSLRLSCAASGFTFSGYSMSWVRQAPGKGLEWVGRTRNKANSYTTEYAASVKGRFTISRDDSKNSLYLQMNSLKTEDTAVYYCARYYSRSLKAFDYWGQGTLVTVSS", "VL": "not shown"}, "B3": {"name": "03-009 (antibody, V domains shown)", "VH": "EVQLVESGGGVVQPGRSLRLSCAASGFTFSDYPMNWVRQAPGKGLEWVSSISGSGGSTYYADSVKGRFTISRDNSKNTLYLQMNSLRAEDTAVYYCAKGLFMVTTYAFDYWGQGTLVTVSS", "VL": "not shown"}, "B4": {"name": "03-001 (antibody, V domains shown)", "VH": "EVQLVESGGGLVKPGGSLRLSCAASGFTFSGYSMNWVRQAPGKGLEWVSSISGGSTYYADSRKGRFTISRDNSKNTLYLQMNNLRAEDTAVYYCARHRFRHVFDYWGQGTLVTVSS", "VL": "not shown"}, "B5": {"name": "03-006 (antibody, V domains shown)", "VH": "EVQLVESGGGLVQPGGSLRLSCAASGFTFSGYPMHWVRQAPGKGLEWVAVISYDGSNKYYADSVKGRFTISRDNSKNTLYLQMNSLRAEDTAVYYCAKDGSPRTPSFDYWGQGTLVTVSS", "VL": "DIQMTQSPHSLSASVGDRVTITCRASQGISNYLAWYQQKPGKVPKLLIYAASTLQSGVPSRFSGSGSGTDFTLTISSLQPEDVGVYYCQQRFRTPVTFGQGTKLEIKR"}, "B6": {"name": "03-013 (antibody, V domains shown)", "VH": "EVQLVESGGGLVQPGGSLRLSCAASGFTFSDHYMDWVRQAPGKGLEWVGRTRNKANSYTTEYAASVKGRFTISRDDSKNSLYLQMNSLKTEDTAVYYCAKGLTPLYFDYWGQGTLVTVSS", "VL": "not shown"}, "B7": {"name": "03-014 (antibody, V domains shown)", "VH": "B6 VH with K100R, L102I, T103S, L105F", "VL": "not shown"}}, "note": "Residue numbers refer to the chain shown, from its start."}
{"biological_target": "S318-510 fragment (amino acids 318-510 of the S protein of SARS-CoV strain Frankfurt 1) (SARS-CoV strain Frankfurt 1, UniProt P59594 318-510)", "test": "IgG ELISA on captured S318-510"}
{"binder": "B1", "binding result": "no binding"}
{"binder": "B2", "binding result": "no binding"}
{"binder": "B3", "binding result": "no binding"}
{"binder": "B4", "binding result": "no binding"}
{"binder": "B5", "binding result": "binds"}
{"binder": "B6", "binding result": "binds"}
{"binder": "B7", "binding result": "binds"}
{"biological_target": "S565 fragment (amino acids 1-565 of the S protein of SARS-CoV), myc-tagged (SARS-CoV strain Frankfurt 1, UniProt P59594 14-565)", "test": "IgG ELISA on captured S565"}
{"binder": "B1", "binding result": "no binding"}
{"binder": "B5", "binding result": "binds"}
{"binder": "B6", "binding result": "binds"}
{"binder": "B7", "binding result": "binds"}
{"biological_target": "spike protein of SARS-CoV as present in the SARS-CoV preparation (SARS-CoV strain Frankfurt 1, UniProt P59594 14-1255)", "test": "sandwich ELISA, detection with anti-spike rabbit sera IMG-542 and IMG-557"}
{"binder": "B6", "binding result": "binds"}
{"biological_target": "full length S protein of SARS-CoV expressed on HEK293T cells (SARS-CoV strain Frankfurt 1, UniProt P59594 14-1255)", "test": "flow cytometry, IgG 10 µg/ml"}
{"binder": "B1", "binding result": "binds"}
{"binder": "B5", "binding result": "binds"}
{"binder": "B6", "binding result": "binds"}
